In publication PMC5764413 (PLoS Neglected Tropical Diseases, 2017):

Molecular target: the molecule itself
Assay: cross-linking

Protein | binding result
RVFV MP12 N protein delN1-14, N-terminal 6His-tag (p14-N) (domain or fragment) AVDRNEIEQWVREFAYQGFDARRVIELLKQYGGADWEKDAKKMIVLALTRGNKPRRMMMKMSKEGKATVEALINKYKLKEGNPSRDELTLSRVAAALAGWTCQALVVLSEWLPVTGTTMDGLSPAYPRHMMHPSFAGMVDPSLPGDYLRAILDAHSLYLLQFSRVINPNLRGRTKEEVAATFTQPMNAAVNSNFISHEKRREFLKAFGLVDSNGKPSAAVMAAAQAYKTAA | binds
RVFV MP12 nucleocapsid protein (N), wild type, N-terminal 6His-tag (p14-N) (natural protein) MDNYQELRVQFAAQAVDRNEIEQWVREFAYQGFDARRVIELLKQYGGADWEKDAKKMIVLALTRGNKPRRMMMKMSKEGKATVEALINKYKLKEGNPSRDELTLSRVAAALAGWTCQALVVLSEWLPVTGTTMDGLSPAYPRHMMHPSFAGMVDPSLPGDYLRAILDAHSLYLLQFSRVINPNLRGRTKEEVAATFTQPMNAAVNSNFISHEKRREFLKAFGLVDSNGKPSAAVMAAAQAYKTAA | binds
